In patent publication US20260092920A1 (FIBROINOVA BIOMEDICAL TECHNOLOGY GUANGZHOU, published 2026):

Target: T1, His-tagged extracellular domain of antigen DDR2 (human, UniProt Q16832 22-399)
T1 construct: range 22-399; Captured on Ni-NTA sensors in BLI; also called extracellular domain protein of the DDR2 antigen; DDR2 antigen; not shown: His tag
T1 sequence (looked up): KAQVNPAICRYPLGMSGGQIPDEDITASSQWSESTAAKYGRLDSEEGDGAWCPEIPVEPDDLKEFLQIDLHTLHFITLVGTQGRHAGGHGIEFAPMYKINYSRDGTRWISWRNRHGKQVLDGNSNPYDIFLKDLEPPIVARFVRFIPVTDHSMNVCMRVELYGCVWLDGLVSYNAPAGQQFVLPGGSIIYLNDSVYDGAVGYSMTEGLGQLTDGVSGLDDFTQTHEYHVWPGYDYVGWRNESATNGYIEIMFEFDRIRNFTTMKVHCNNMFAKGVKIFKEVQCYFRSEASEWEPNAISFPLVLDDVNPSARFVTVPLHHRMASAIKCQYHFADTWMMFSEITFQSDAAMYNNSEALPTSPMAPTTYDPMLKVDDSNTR
Assay: BLI (ForteBio), His-tagged DDR2 extracellular domain captured on Ni-NTA sensor, nanobody 100 nM to 3.125 nM in solution, 1:1 fit
Method: For the DDR2 nanobody 1A12 described above, based on the ForteBio bio-layer interferometry (BLI) platform for molecular interaction analysis, the affinity of the nanobody for the extracellular domain protein of the DDR2 antigen was analyzed and detected by determining the affinity of the antibody for the antigen by using the BLI method.
The kinetic curves were made, and the relevant parameters were calculated. Appropriate binding and dissociation curves of several concentration gradients were selected. All the curves were fitted using the 1:1 binding model. Three curves with the best fitting degrees were selected for plotting and analysis. Finally, important parameters such as affinity value, binding constant, and dissociation constant were obtained.

Kd: 4.36 nM
B1: DDR2 nanobody 1A12 (VHH)
VHH: EVQLVESGGGLVQPGGSLRLSCAASGYILSPNVMGWFRQAPGKGRELVAAISWGDGRTYYPDSVEGRFTISRDNAKRMVYLQMNSLRAEDTAVYYCAASRKGYPSTRSDPYNYWGQGTQVTVSS
notes: VHH of an alpaca heavy chain antibody raised against the human DDR2 extracellular domain; Expressed and purified; also called Nb-DDR2; 1A12-VHH
